Laboratory results reported in PMC2565473, “A Ligand Peptide Motif Selected from a Cancer Patient Is a Receptor-Interacting Site within Human Interleukin-11” (PLoS ONE, 2008).
Bridges are numbered along the chain shown (N, C = ends). Where no end group is shown, it is not given here.

B4: IL-11Rα (recombinant, extracellular domain fused to the Fc region of human IgG) (Fc fusion, UniProt Q14626 24-370, looked up)
chain: SPCPQAWGPPGVQYGQPGRSVKLCCPGVTAGDPVSWFRDGEPKLLQGPDSGLGHELVLAQADSTDEGTYICQTLDGALGGTVTLQLGYPPARPVVSCQAADYENFSCTWSPSQISGLPTRYLTSYRKKTVLGADSQRRSPSTGPWPCPQDPLGAARCVVHGAEFWSQYRINVTEVNPLGASTRLLDVSLQSILRPDPPQGLRVESVPGYPRRLRASWTYPASWPCQPHFLLKFRLQYRPAQHPAWSTVEPAGLEEVITDAVAGLPHAVRVSARDFLDAGTWSTWSPEAWGTPSTGTIPKEIPAWGQLHTQPEVEPQVDSPAPPRPSLQPHPRLLDHRDSVEQVAVLA
notes: human interleukin-11 receptor alpha, extracellular domain; The methods of the NMR and of the proliferation assay name only 'IL-11Rα' or 'human sIL-11Rα'; also called IL-11 receptor α; sIL-11Rα; source: bought: R&D Systems

Tests used:
[1] = molecular target: B4; assay: NMR titration; 1D-1H and 2D-1H TOCSY/NOESY at 600 MHz; IL-11Rα 6 µM, peptide up to 400 µM (molar excess ∼16-, 33- and 66-fold); 50 mM sodium phosphate, 5 mM sodium azide, 10% D2O; 25°C; settings: both partners purified
[2] = molecular target: B4; assay: phage binding assay; alanine-scanning phage on immobilized IL-11Rα, done as a1; result given as grade of the ratio binding to IL-11Rα / binding to BSA; in duplicate, repeated at least four times; settings: one partner purified
[3] = molecular target: GST-IL-11 R113A (human) (UniProt P20809); assay: ELISA; GST fusion proteins coated overnight on 96-well plates at 5 µg/ml, blocked with 3% BSA in PBS; IL-11Rα (1 µg/ml) incubated for 2 h; detected with anti-human Fc HRP-conjugated antibody
[4] = molecular target: T1, GST-IL-11 G116A (human, UniProt P20809 22-199, G116A); assay: as above; settings: both partners purified
T1 construct: human interleukin-11, open reading frame in pGEX4T-1, alanine mutant made on the GST-IL-11 plasmid; As m7 with the mutation; also called Gly^116 mutant; source: E. coli BL21, purified from inclusion bodies (solubilized in 6 M guanidine-HCl)
T1 sequence (looked up): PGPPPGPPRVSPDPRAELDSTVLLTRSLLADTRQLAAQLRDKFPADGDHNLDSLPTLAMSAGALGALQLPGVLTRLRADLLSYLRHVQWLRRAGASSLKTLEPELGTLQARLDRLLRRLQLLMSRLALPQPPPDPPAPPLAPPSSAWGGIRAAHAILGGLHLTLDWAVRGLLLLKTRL

[5] = molecular target: T2, GST-IL-11 G115A (human, UniProt P20809 22-199, G115A); assay: as above; settings: both partners purified
T2 construct: human interleukin-11, open reading frame in pGEX4T-1, alanine mutant made on the GST-IL-11 plasmid; As m7 with the mutation; also called Gly^115 mutant; source: E. coli BL21, purified from inclusion bodies (solubilized in 6 M guanidine-HCl)
T2 sequence (looked up): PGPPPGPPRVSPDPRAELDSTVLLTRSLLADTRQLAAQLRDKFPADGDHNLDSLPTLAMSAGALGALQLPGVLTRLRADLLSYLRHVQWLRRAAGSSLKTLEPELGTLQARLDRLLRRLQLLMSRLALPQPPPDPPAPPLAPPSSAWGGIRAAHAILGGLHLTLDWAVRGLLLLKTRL

[6] = molecular target: T3, GST-IL-11 S117A (human, UniProt P20809 22-199, S117A); assay: as above; settings: both partners purified
T3 construct: human interleukin-11, open reading frame in pGEX4T-1, alanine mutant made on the GST-IL-11 plasmid; As m7 with the mutation; also called Ser^117 mutant; source: E. coli BL21, purified from inclusion bodies (solubilized in 6 M guanidine-HCl)
T3 sequence (looked up): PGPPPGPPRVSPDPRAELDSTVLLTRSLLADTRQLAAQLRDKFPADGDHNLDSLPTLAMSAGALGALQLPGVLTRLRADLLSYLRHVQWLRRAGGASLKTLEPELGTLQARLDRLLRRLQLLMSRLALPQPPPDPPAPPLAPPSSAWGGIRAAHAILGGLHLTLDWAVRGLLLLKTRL

[7] = molecular target: T4, GST-IL-11 R112A (human, UniProt P20809 22-199, R112A); assay: as above; settings: both partners purified
T4 construct: human interleukin-11, open reading frame in pGEX4T-1, alanine mutant made on the GST-IL-11 plasmid; As m7 with the mutation; also called Arg^112 mutant; source: E. coli BL21, purified from inclusion bodies (solubilized in 6 M guanidine-HCl)
T4 sequence (looked up): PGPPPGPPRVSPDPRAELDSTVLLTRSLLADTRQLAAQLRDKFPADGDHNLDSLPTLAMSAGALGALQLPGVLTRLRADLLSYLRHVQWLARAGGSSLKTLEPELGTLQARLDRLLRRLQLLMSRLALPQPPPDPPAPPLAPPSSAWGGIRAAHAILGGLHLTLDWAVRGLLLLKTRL

B1: synthetic cyclic peptide CGRRAGGSC (peptide)
peptide: CGRRAGGSC
modifications: disulfide 1-9
notes: peptide selected from a combinatorial phage library in a cancer patient; RRAGGS corresponds to residues 112-117 of human IL-11; also called IL-11-like peptide; source: synthetic peptide, synthesized and cyclized at AnaSpec
- binding result [1]: binds

B2: CGARAGGSC phage (Arg^3 to Ala mutant of the … phage) (peptide)
peptide: CGARAGGSC
notes: source: phage display, cloned into SfiI-digested fUSE5 vector
- % reduction of binding relative to the … phage [2]: > 70%

B3: CGRRAAGSC phage (Gly^6 to Ala mutant of the … phage) (peptide)
peptide: CGRRAAGSC
notes: as for B2
- % reduction of binding relative to the … phage [2]: > 70%

Binder: B4
- % binding inhibition relative to wild-type IL-11 [3]: 86%
- % binding inhibition relative to wild-type IL-11 [4]: 29%
- % binding inhibition relative to wild-type IL-11 [5]: 71%
- % binding inhibition relative to wild-type IL-11 [6]: 86%
- % binding inhibition relative to wild-type IL-11 [7]: 43%
